# From the supplement of paper PMC7877785
# ± gives the uncertainty stated by the source.
# Assay: self-splicing fitness, log relative to wild type (ln ratio); higher = more splicing; Tetrahymena group I intron in knt gene, E. coli kanamycin selection, DiMSum; sequences stand for … in CUCUCU…GGAGGGAAAAGUUAUCAGGCAUGCACCUGGUAGCUAGUCUUUAAACCAAUAGAUUGCAUCGGUUUAAAAGGCAAGACCGUCAAAUUGCGGGAAAGGGGUCAACAGCCGUUCAGUACCAAGUCUCAGGGGAAACUUUGAGAUGGCCUUGCAAAGGGUAUGGUAAUAAGCUGACGGACAUGGUCCUAACCACGCAGCCAAGUCCUAAGUCAACAGAUCUUCUGUUGAUAUGGAUGCAGUUCACAGACUAAAUGUCGGUCGGGGAAGAUGUAUUCUUCUCAUAAGAUAUAGUCGGACCUCUCCUUAAUGGGAGCUAGCGGAUGAAGUGAUGCAACACUGGAGCCGCUGGGAACUAAUUUGUAUGCGAAAGUAUAUUGAUUAGUUUUGGAGUACUCGUGGUCG
# Method in brief: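 DiMSum derived fitness as the error-weighted combination of fold changes across replicates, kanamycin versus no kanamycin, normalised to wild type. E. coli BL21(DE3) held the library, which randomised all eight P1ex-region intron nucleotides within the knt kanamycin-resistance gene on pET-22b(+). Six replicate transformations grew overnight at 37°C or 30°C on LB agar with or without 25 μg/mL kanamycin, also containing 100 μg/mL carbenicillin, 50 μM IPTG and 0.2% rhamnose, and pooled colonies were amplicon-sequenced on an Illumina HiSeq 2500.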
Sequence,self-splicing fitness (ln) (30 °C),self-splicing fitness (ln) (37 °C)
UCGCAGCAAUAUUACGGAUC,-3.82 ± 0.35,
UCGCAGCAAUAUUACGGCUU,-1.16 ± 0.08,0.404 ± 0.12
UCGCAGCAAUAUUACGGGUU,-2.63 ± 0.14,-2.38 ± 0.16
UCGCAGCAAUAUUACGGUUA,-0.15 ± 0.086,-0.398 ± 0.087
UCGCAGCAAUAUUACGGUUU,-3.17 ± 0.12,-1.72 ± 0.12
UCGCAGCAAUAUUACGUACA,-1.62 ± 0.15,-0.509 ± 0.12
UCGCAGCAAUAUUACGUAGA,-0.804 ± 0.065,-0.0374 ± 0.079
UCGCAGCAAUAUUACGUCUC,,-1.97 ± 0.27
UCGCAGCAAUAUUACGUCUG,,-1.97 ± 0.18
UCGCAGCAAUAUUACGUUCU,-3.58 ± 0.18,-2.31 ± 0.11
UCGCAGCAAUAUUACGUUGU,-2.56 ± 0.2,-1.73 ± 0.21
UCGCAGCAAUAUUACGUUUA,-1.78 ± 0.12,-1.11 ± 0.11
UCGGAGCAAUAUUACGAAUU,-2.9 ± 0.26,-2.69 ± 0.28
UCGGAGCAAUAUUACGAGUG,-2.47 ± 0.18,-2.48 ± 0.19
UCGGAGCAAUAUUACGAUCA,,-1.23 ± 0.48
UCGGAGCAAUAUUACGAUGA,-0.946 ± 0.15,-1.11 ± 0.16
UCGGAGCAAUAUUACGAUUC,-0.553 ± 0.26,-0.938 ± 0.24
UCGGAGCAAUAUUACGCGCA,-0.975 ± 0.23,
UCGGAGCAAUAUUACGCGUA,-1.73 ± 0.26,-1.38 ± 0.21
UCGGAGCAAUAUUACGCGUC,-2.14 ± 0.47,
UCGGAGCAAUAUUACGCUAU,-3.09 ± 0.34,-2.48 ± 0.36
UCGGAGCAAUAUUACGGGGA,-1.76 ± 0.2,-1.13 ± 0.19
UCGGAGCAAUAUUACGUAAA,-3.16 ± 0.31,-1.55 ± 0.29
UCGGAGCAAUAUUACGUCAA,,-2.12 ± 0.38
UCGGAGCAAUAUUACGUUUA,-2.32 ± 0.29,-2.35 ± 0.42

Sequence,self-splicing fitness (ln) (30 °C),self-splicing fitness (ln) (37 °C)
UCGUAGCAAUAUUACGAGAA,-2.57 ± 0.49,-1.61 ± 0.41
UCGUAGCAAUAUUACGAGUG,-3.62 ± 0.32,-3.09 ± 0.3
UCGUAGCAAUAUUACGAGUU,-3.76 ± 0.25,-2.5 ± 0.2
UCGUAGCAAUAUUACGCGGC,,-2.15 ± 0.46
UCGUAGCAAUAUUACGCGGG,-3.63 ± 0.37,-0.254 ± 0.15
UCGUAGCAAUAUUACGCUAU,-2.37 ± 0.45,-2.88 ± 0.4
UCGUAGCAAUAUUACGCUCG,-1.9 ± 0.16,-1.2 ± 0.23
UCGUAGCAAUAUUACGCUUG,-2.53 ± 0.17,-0.409 ± 0.14
UCGUAGCAAUAUUACGCUUU,-2.74 ± 0.14,-2.4 ± 0.15
UCGUAGCAAUAUUACGGCUC,,-1.44 ± 0.24
UCGUAGCAAUAUUACGGGGC,-2.26 ± 0.2,-2.55 ± 0.27
UCGUAGCAAUAUUACGGGGU,-3.35 ± 0.23,-2.35 ± 0.25
UCGUAGCAAUAUUACGGGUU,-3.23 ± 0.18,-2.38 ± 0.23
UCGUAGCAAUAUUACGUCAG,-3.66 ± 0.48,-1.89 ± 0.29
UCGUAGCAAUAUUACGUCCU,-2.04 ± 0.21,-1.63 ± 0.31
UCGUAGCAAUAUUACGUUGG,-2.59 ± 0.17,-0.973 ± 0.17
UCUAAGCAAUAUUACGAACU,-2.55 ± 0.11,-2.26 ± 0.15
UCUAAGCAAUAUUACGAAGA,-1.29 ± 0.14,-0.678 ± 0.13
UCUAAGCAAUAUUACGAGUC,-3.41 ± 0.3,-2.93 ± 0.3
UCUAAGCAAUAUUACGCAUG,-1.88 ± 0.095,-2.07 ± 0.12
UCUAAGCAAUAUUACGCCAA,-1.47 ± 0.32,-0.954 ± 0.23
UCUAAGCAAUAUUACGCCAU,-3.76 ± 0.46,-2.37 ± 0.42
UCUAAGCAAUAUUACGCCGC,-2.69 ± 0.29,
UCUAAGCAAUAUUACGCCUC,-3.67 ± 0.35,-2.98 ± 0.47
UCUAAGCAAUAUUACGCGAU,-4.31 ± 0.33,-3.83 ± 0.36

Sequence,self-splicing fitness (ln) (30 °C),self-splicing fitness (ln) (37 °C)
UCUAAGCAAUAUUACGCGCC,,-2.67 ± 0.38
UCUAAGCAAUAUUACGCGGA,-2.69 ± 0.3,-2.47 ± 0.24
UCUAAGCAAUAUUACGCUGG,-2.53 ± 0.12,-2.92 ± 0.24
UCUAAGCAAUAUUACGGCUG,-0.983 ± 0.21,-1.68 ± 0.24
UCUAAGCAAUAUUACGGGCC,-3.14 ± 0.33,-2.09 ± 0.33
UCUAAGCAAUAUUACGGUGU,-1.75 ± 0.083,-1.34 ± 0.093
UCUAAGCAAUAUUACGUCAC,-2.47 ± 0.24,0.446 ± 0.28
UCUAAGCAAUAUUACGUGAA,-1.68 ± 0.088,-0.923 ± 0.099
UCUAAGCAAUAUUACGUUAA,-3.72 ± 0.32,-1.67 ± 0.2
UCUAAGCAAUAUUACGUUAU,-3.25 ± 0.24,-2.31 ± 0.27
UCUAAGCAAUAUUACGUUUC,,-2.3 ± 0.26
UCUCAGCAAUAUUACGAAUC,-3.99 ± 0.39,-2.58 ± 0.22
UCUCAGCAAUAUUACGACCC,,-1.98 ± 0.23
UCUCAGCAAUAUUACGACCU,-1.84 ± 0.18,-0.921 ± 0.22
UCUCAGCAAUAUUACGAUAG,-2.43 ± 0.15,-0.737 ± 0.15
UCUCAGCAAUAUUACGAUUA,-0.806 ± 0.11,-0.539 ± 0.12
UCUCAGCAAUAUUACGAUUG,-3.43 ± 0.17,-2.07 ± 0.17
UCUCAGCAAUAUUACGCAGA,-2.73 ± 0.49,
UCUCAGCAAUAUUACGCAUC,-3.51 ± 0.21,-2.32 ± 0.2
UCUCAGCAAUAUUACGCGCC,-3.46 ± 0.25,-1.25 ± 0.19
UCUCAGCAAUAUUACGGAAG,-1.82 ± 0.18,-2.93 ± 0.3
UCUCAGCAAUAUUACGGAAU,-3.04 ± 0.26,-1.85 ± 0.21
UCUCAGCAAUAUUACGGCUU,-3.42 ± 0.2,-3.05 ± 0.18
UCUCAGCAAUAUUACGGGCC,-2.05 ± 0.2,-1.37 ± 0.27
UCUCAGCAAUAUUACGGGGA,-2.92 ± 0.21,-1.98 ± 0.22

Sequence,self-splicing fitness (ln) (30 °C),self-splicing fitness (ln) (37 °C)
UCUCAGCAAUAUUACGGUAU,-3.7 ± 0.21,-3.05 ± 0.26
UCUCAGCAAUAUUACGUAGA,-0.809 ± 0.091,-0.77 ± 0.13
UCUCAGCAAUAUUACGUAUU,-3.14 ± 0.2,-2 ± 0.16
UCUCAGCAAUAUUACGUCGG,-1.51 ± 0.085,-1.22 ± 0.11
UCUCAGCAAUAUUACGUGAA,-1.14 ± 0.082,0.314 ± 0.1
UCUCAGCAAUAUUACGUUUC,-4.29 ± 0.42,-1.97 ± 0.34
UCUCAGCAAUAUUACGUUUU,-3.4 ± 0.15,-3.25 ± 0.21
UCUGAGCAAUAUUACGACGA,-0.584 ± 0.11,0.197 ± 0.13
UCUGAGCAAUAUUACGAGUA,-2.16 ± 0.16,-2.17 ± 0.26
UCUGAGCAAUAUUACGAUCU,-3.4 ± 0.35,-2.52 ± 0.21
UCUGAGCAAUAUUACGCCGA,-1.16 ± 0.21,0.184 ± 0.22
UCUGAGCAAUAUUACGCUGC,-2.24 ± 0.37,-1.46 ± 0.34
UCUGAGCAAUAUUACGGCUU,-2.02 ± 0.32,-2.34 ± 0.32
UCUGAGCAAUAUUACGGGUC,-4.32 ± 0.39,-2.38 ± 0.3
UCUGAGCAAUAUUACGGUCA,-2.5 ± 0.29,-1.7 ± 0.29
UCUGAGCAAUAUUACGUACG,,-2.34 ± 0.35
UCUGAGCAAUAUUACGUCAG,-1.48 ± 0.096,-0.513 ± 0.11
UCUGAGCAAUAUUACGUGAC,-2.99 ± 0.2,-2.97 ± 0.27
UCUGAGCAAUAUUACGUGGA,-2.95 ± 0.29,-1.63 ± 0.18
UCUGAGCAAUAUUACGUGGU,-2.58 ± 0.13,-2.21 ± 0.15
UCUGAGCAAUAUUACGUGUG,-2.15 ± 0.12,-1.51 ± 0.12
UCUGAGCAAUAUUACGUUUU,-4.31 ± 0.29,-3.26 ± 0.28
UCUUAGCAAUAUUACGAAAA,,-0.128 ± 0.34
UCUUAGCAAUAUUACGAAAG,-2.07 ± 0.35,-1.12 ± 0.34
UCUUAGCAAUAUUACGAACA,-0.762 ± 0.13,-1.04 ± 0.14
